Experimental findings from article PMC10873621 are described below.

The target of the experiment is RNF20 (UniProt Q5VTR2). The experiment is described as follows: co-IP with anti-Myc, anti-Flag blot. The settings on record: reference: Flag-LSD1-WT; sites T810,S817,T841,S849,S851.

Turning to LSD1 (from UniProt O60341) Flag-LSD1-5A, the “binding against the reference” value is reported as “weaker”.
